From the supplement of paper PMC10567573
± gives the standard deviation.

Test: protein stability index of a GFP-peptide fusion (GPS, HEK-293T) (PSI 1-6); higher = more stable
[1] = treatment: DMSO, c terminus: a fixed tail appended
[2] = treatment: MLN4924 1 uM, 8 h, c terminus: a fixed tail appended
[3] = treatment: DMSO, c terminus: native
[4] = treatment: MLN4924 1 uM, 8 h, c terminus: native
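Further: 24-mer peptide tiles fused after GFP, lentivirally expressed, FACS-sorted into six equal bins by GFP/DsRed ratio, decoded by Illumina sequencing, PSI is the read-weighted mean bin number.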

Row | Sequence | protein stability index [1] | protein stability index [2] | protein stability index [3] | protein stability index [4]
1 | NSLLEEETILHFFVQILLALHHVH [NEK8] | 2.38 ± 0.11 | 2.33 ± 0.35 | – | –
2 | IRLVDDAFGKICHMVSDGSWVVRV [INTS4] | 3.07 ± 0.46 | 2.98 ± 0.54 | – | –
3 | ELVSVEDLLKFEKKFQSEKAAGSV [FIS1] | 3.58 ± 0.3 | 4.07 ± 0.35 | – | –
4 | YPGIRAGRKNAAPLTIRPPTDWE [TRIM39] | – | – | 3.44 ± 0.31 | 3.9 ± 0.36
5 | KERKKREERERKRRKEEEVQQQKL [FAF2] | 5.09 ± 0.46 | 4.91 ± 0.31 | – | –
6 | KVKRSLRQARKKGRHLELANQKLS [CCDC3] | 4 ± 0.26 | 4.39 ± 0.45 | – | –
7 | YAVTPLPWCPHLVAVCPIPAAGLD [HDAC6] | 2.99 ± 0.49 | 2.33 ± 0.48 | – | –
8 | NFSAAKSLLNKKADGVKPQTNSTK [CAMK2B] | 4.98 ± 0.22 | 4.85 ± 0.34 | – | –
9 | KTLRVWDLKDDGNMMKVLRGHQNW [WSB1] | 2.66 ± 0.4 | 2.4 ± 0.42 | – | –
10 | RQDAKYLNMRSTYAKLAAVAVFFI [SEC22B] | 2.35 ± 0.4 | 2.15 ± 0.25 | – | –
11 | LQEKQKNEKLISLQEQLQRFLKK [TAF7L] | – | – | 4.51 ± 0.29 | 4.6 ± 0.15
12 | MLQRAIAYQHSGHLESKDINQEEL [C10orf62] | 3.96 ± 0.19 | 4.14 ± 0.24 | – | –
13 | KESLETPSNGRIDIKQLIAKKIKL [SOAT1] | 2.55 ± 0.14 | 2.94 ± 0.27 | – | –
14 | MNNAVRNLQELLELDSSSSLCVLV [CEP70] | 2.36 ± 0.29 | 2.32 ± 0.19 | – | –
15 | GAHSNAPITAHAEVEVVEEAKCCC [CSNK1G1] | 4.79 ± 0.22 | 5.23 ± 0.21 | – | –
16 | SQMVSTDNSLSSQNYISQKEDASE [MIA2] | 5.29 ± 0.44 | 5.21 ± 0.26 | – | –
17 | VGIFHLMQIAVPCAFLLLRLLVGL [TMEM175] | 2.81 ± 0.45 | 2.82 ± 0.47 | – | –
18 | LLLSHIHASSYISPEKEEQYIAQF [PRAME] | 2.42 ± 0.54 | 2.37 ± 0.4 | – | –
19 | AYRGNCKDVSRCVAERKYTQEQAR [SMOC2] | 3.06 ± 0.19 | 3.38 ± 0.46 | – | –
20 | ILIALVGATPSYHWDLAELLPNQS [SLC22A15] | 2.85 ± 0.43 | 2.9 ± 0.75 | – | –
21 | PVEEPEPKPDRLLVLKVLWNDFLM [SLC19A2] | 2.21 ± 0.2 | 2.17 ± 0.19 | – | –
22 | TTGSKELDKLLQGGIETGSITEMF [RAD51] | 3.51 ± 0.27 | 3.76 ± 0.51 | – | –
23 | TAKNSRVVCGMFGFPGERTYNTKV [LOXL2] | 2.6 ± 0.3 | 2.63 ± 0.067 | – | –

Row | Sequence | protein stability index [1] | protein stability index [2] | protein stability index [3] | protein stability index [4]
24 | VPGHRSERAIRTQPKQLIVDDLKG [SPRY1] | 4.25 ± 0.34 | 4.13 ± 0.47 | – | –
25 | LCRKCANDIFQAANPYWTSRGSSV [TRIM63] | 2.32 ± 0.36 | 2.58 ± 0.49 | – | –
26 | VRKHPAVKEKGSTLDLSDLEAEKL [SCD] | 5.12 ± 0.3 | 4.82 ± 0.14 | – | –
27 | EVSHPFLIRLFWTWHDERFLYMLM [PRKX] | 2.24 ± 0.55 | 2.14 ± 0.19 | – | –
28 | CTWSIFQSIEYAGQQDQVKLHDFF [PPEF2] | 2.54 ± 0.62 | 2.37 ± 0.46 | – | –
29 | HRGLRCSWEGLAVLDSLLLTLLPQ [RSAD1] | 3.06 ± 0.41 | 3.07 ± 0.3 | – | –
30 | PVSKPGALRRSLSRSMSQEAQRG [TCAP] | – | – | 3.19 ± 0.23 | 3.2 ± 0.37
31 | LQGKDAWLPLHYAAWQGHLPIVKL [RIPK4] | 2.21 ± 0.38 | 2.48 ± 0.42 | – | –
32 | MEAADASRSNGSSPEARDARSPSG [TRIM29] | 5.29 ± 0.18 | 5.5 ± 0.091 | – | –
33 | CVATTGDITVSVSTSFLPELSSVH [FBXO3] | 2.23 ± 0.27 | 2.14 ± 0.23 | – | –
34 | VGGYGTRLRPLTLSTPKPLVDFCN [GMPPB] | 2.41 ± 0.16 | 2.46 ± 0.14 | – | –
35 | EACLVAQCDALIDALNRRKAQLLA [TRIM9] | 2.46 ± 0.29 | 2.65 ± 0.44 | – | –
36 | DLMGVLTKGVREVERALQLPREPG [FEM1A] | 2.82 ± 0.17 | 2.69 ± 0.37 | – | –
37 | EEVSTLNAQIPELKSDLEKASALN [CD207] | 5.08 ± 0.19 | 5.24 ± 0.17 | – | –
38 | GANINAQTEETQETALTLACCGGF [ANKRD17] | 4.63 ± 0.15 | 4.59 ± 0.31 | – | –
39 | RRLRGEQRGQEPLGPGALHFDLRD [TCF25] | 4.24 ± 0.22 | 4.43 ± 0.21 | – | –
40 | ATYRSLLEGQDAKMIGFPSSAGSV [KRT13] | 3.22 ± 0.4 | 3.54 ± 0.24 | – | –
41 | VIEAIAQITVKALPKPPGTPVVTE [PTPRD] | 2.3 ± 0.4 | 2.16 ± 0.27 | – | –
42 | EKKLFECLTCGKSFRQGMHLTRHQ [ZNF263] | 2.1 ± 0.41 | 2.27 ± 0.19 | – | –
43 | HTSSEYDMLREMFSDSRSNNDDDE [TAF7L] | 5.57 ± 0.28 | 5.24 ± 0.53 | – | –
44 | TDIDIDTLCAVLERDTLSIRESRL [BTBD1] | 2.84 ± 0.2 | 3.15 ± 0.37 | – | –
45 | LRSCYFSDPDCSMRPTLIDLLPTF [FBXO39] | 2.46 ± 0.35 | 2.2 ± 0.26 | – | –
46 | LARVPKLDLKRQYDRVAQLDQLLH [CHGB] | 2.15 ± 0.063 | 2.48 ± 0.26 | – | –

Row | Sequence | protein stability index [1] | protein stability index [2] | protein stability index [3] | protein stability index [4]
47 | LSMVSECLFSLINGDDMFVTFAAM [MCOLN1] | 2.35 ± 0.43 | 2.31 ± 0.3 | – | –
48 | DSEEPVSTHQEAENEKDRADQTVL [CHGB] | 5.29 ± 0.56 | 5.65 ± 0.27 | – | –
49 | VLEQEETAAASRERQEEQSAAIHI [EPB41L3] | 5.33 ± 0.24 | 5.16 ± 0.23 | – | –
50 | AADDFRLKYENELALRQGVEADIN [KRT15] | 4.77 ± 0.29 | 4.64 ± 0.23 | – | –
51 | TTSETQKSVQCGTWTKHAEGGIFT [NETO1] | 3.59 ± 0.085 | 3.62 ± 0.23 | – | –
52 | GSGVIGRSWAMLFASGGFQVKLYD [CRYL1] | 2.33 ± 0.31 | – | – | –
53 | KKKEGGALRAQRASSNVFSNFEQT [MYL5] | 4.42 ± 0.45 | 4.47 ± 0.15 | – | –
54 | QTLDKKLMSDLRRKRTAHERAKEL [INTS4] | 4.22 ± 0.27 | 4.26 ± 0.25 | – | –
55 | PDTELKRYFGARAILGEQRPRQRQ [TCF25] | 4.25 ± 0.11 | 4.11 ± 0.18 | – | –
56 | QPQDRNQALGTHRPVNKLAELQCE [RASAL3] | 4.77 ± 0.37 | 4.88 ± 0.25 | – | –
57 | LGPSRDPDPLNICVFILLLVFIVV [RTP4] | 3.8 ± 0.48 | 2.77 ± 0.41 | – | –
58 | MEALDLQPGLSFLNLGSGTGYLSS [PCMTD2] | 3.4 ± 0.36 | 3.45 ± 0.4 | – | –
59 | KVTGYLISYSSMLGAVAGLALGPI [MFSD9] | 3.31 ± 0.48 | 2.96 ± 0.28 | – | –
60 | ACIAYIRLTQYMDGSGMPKTMQSE [CAMK2D] | 2.88 ± 0.5 | 2.55 ± 0.59 | – | –
61 | SPSHKGIAAPHAGANVKPRNSTPP [ZC2HC1A] | 4.92 ± 0.092 | 4.86 ± 0.54 | – | –
62 | SGFSARERLERAVSDRLAPGAPRG [MYCL] | 4.13 ± 0.3 | 4.16 ± 0.2 | – | –
63 | SEKGKPYVDIQGLTASTMEILLDF [KLHL12] | 2.06 ± 0.5 | 2.25 ± 0.6 | – | –
64 | GLGPTSEPFPSSDDSPRSALAAAT [SPAG8] | 4.95 ± 0.19 | 5.18 ± 0.038 | – | –
65 | QRMRVPEKLKVAPPNADLEQGFQE [MFF] | 4.82 ± 0.19 | 4.74 ± 0.092 | – | –
66 | LDVRARLECEINTYRSLLESEDCK [KRT33B] | 4.23 ± 0.16 | 4.38 ± 0.25 | – | –
67 | GKTDDTLALLNLACMMTITFLPYT [TMEM175] | 3.21 ± 0.33 | 3.08 ± 0.16 | – | –
68 | PESDILQPVPNTTEPDYKSKDWVF [STK38L] | 4.45 ± 0.32 | 4.55 ± 0.19 | – | –
69 | VSSSEQLQSYQAEIIELRRTVNAL [KRT33B] | 3.12 ± 0.22 | 3.2 ± 0.42 | – | –

Row | Sequence | protein stability index [1] | protein stability index [2] | protein stability index [3] | protein stability index [4]
70 | VVNTDHGSPEQLQIPVTDSGRHIL [SDE2] | 4.18 ± 0.15 | 4.29 ± 0.45 | – | –
71 | AQEEPWEKKESLGAAQEALSIQLQ [ZNF232] | 4.91 ± 0.4 | 5 ± 0.15 | – | –
72 | TVECYNPRTNEWTYVAKMSEPHYG [KLHL13] | 2.36 ± 0.1 | 2.52 ± 0.72 | – | –
73 | FSIPPTNHEIMPGGSVNITCVAVG [PTPRD] | 2.22 ± 0.17 | 2.06 ± 0.14 | – | –
74 | FYPALWPQLRICLRVSPAEQPRLE [FBXO33] | 2.39 ± 0.46 | 2.3 ± 0.27 | – | –
75 | NRKRECGNAHYQRADFVLAANSYD [FKBP8] | 3.33 ± 0.35 | 3.68 ± 0.29 | – | –
76 | LIKSGAHFDATNLHKQTASDLLDE [FEM1C] | 4.61 ± 0.36 | 4.53 ± 0.51 | – | –
77 | FETQMKTLAQFPETLLGDPEKRTQ [KCNA4] | 4.79 ± 0.16 | 4.84 ± 0.21 | – | –
78 | WLQERYEIVGNLGEGTFGKVVECL [CLK3] | 2.24 ± 0.068 | 2.27 ± 0.12 | – | –
79 | TARAHPAKARDLYKGRQLQGCPGA [SMOC2] | 3.23 ± 0.64 | 4.41 ± 0.57 | – | –
80 | VWNRKLDLLCKTSHLSDTGISALV [WDR41] | 2.26 ± 0.27 | 2.2 ± 0.34 | – | –
81 | QLSRDSTLGGKAFHITNDEPIPFW [NSDHL] | 2.89 ± 0.18 | 3.07 ± 0.55 | – | –
82 | LMVGPNFRVGKKIGCGNFGELRLG [CSNK1G3] | 1.9 ± 0.23 | 2.58 ± 0.59 | – | –
83 | GKDHEILRRRIENGAKELWFFLQS [FUT8] | 2.08 ± 0.65 | 2.36 ± 0.27 | – | –
84 | SSSSSSSWLTRRAIRPENRAPGAG [EMD] | 4.33 ± 0.25 | 4.16 ± 0.25 | – | –
85 | DFDEEYFSNTSELAKDFIRRLLVK [DAPK3] | 2.77 ± 0.28 | 3.12 ± 0.3 | – | –
86 | GFAVKALWGRTQEEAEELAKEMSV [GFOD1] | 4.24 ± 0.13 | 4.07 ± 0.3 | – | –
87 | ARTCAKQNINAPAPATTSSWEVVR [C22orf31] | 3.04 ± 0.4 | 3.22 ± 0.32 | – | –
88 | PFYTSRIDEVLLHQDVDLVCINLP [GFOD1] | 2.08 ± 0.18 | 2.21 ± 0.35 | – | –
89 | SDSIAYDKGEKLLRCKLAAFYRLA [ADD1] | 2.33 ± 0.49 | 2.34 ± 0.28 | – | –
